± gives the standard deviation.

The series is described as follows: protein stability index of a GFP-peptide fusion (GPS, HEK-293T) (PSI 1-6); higher = more stable.
The mark [1] stands for this setting: treatment: DMSO, c terminus: a fixed tail appended.
[2] abbreviates: treatment: MLN4924 1 uM, 8 h, c terminus: a fixed tail appended.
[3] abbreviates: treatment: DMSO, c terminus: native.
Where [4] appears, read: treatment: MLN4924 1 uM, 8 h, c terminus: native.
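Also: 24-mer peptide tiles fused after GFP, lentivirally expressed, FACS-sorted into six equal bins by GFP/DsRed ratio, decoded by Illumina sequencing, PSI is the read-weighted mean bin number.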

Take RSSFANQGEICLCTSRIFVQKSIY [ALDH8A1]: the protein stability index reads like this: under setting [1], 2.03 ± 0.41; under setting [2], 2.13 ± 0.24.

Turning to RTALEYCKLILSLEPDEDPLCMLL [TCF25], the protein stability index came to 2.24 ± 0.36 under setting [1] and 2.32 ± 0.3 under setting [2].

As to RTCFSPASDGSDFTFLRPLSVQQP [PCDHGC5], the protein stability index turned out to be 2.77 ± 0.23 under setting [1] and 2.78 ± 0.22 under setting [2].

Turning to RTDLKDLIIFDKQSSQRMRQNLKL [CEP70], the protein stability index turned out to be 2.93 ± 0.24 under setting [1] and 2.93 ± 0.32 under setting [2].

Consider RTDPNGDYIRRYLPVLRGFPAKYI [CRY1], for which the protein stability index turned out to be 2.27 ± 0.3 under setting [1] and 2.42 ± 0.39 under setting [2].

Sequence RTMCAVLGLVARQEDSGLRDHSVR [AUP1] yielded a protein stability index under setting [1] of 2.43 ± 0.33 and a protein stability index under setting [2] of 2.76 ± 0.26.

As to RTPLHYAAANCHFHCIETLVTTGA [ANKRD44], the protein stability index reads like this: under setting [1], 2.36 ± 0.57; under setting [2], 2.44 ± 0.5.

Regarding RVRKEAMMGLAQIYKKYALQSAAG [PDS5B], the protein stability index runs as follows: under setting [1], 2.2 ± 0.37; under setting [2], 2.14 ± 0.34.

Consider RVSRKPTAAMRCMCPLYDPNRQLW [GAN], for which the protein stability index was found to be 2.48 ± 0.67 under setting [1] and 2.34 ± 0.47 under setting [2].

Consider RVYVSGLMKGGADLFVENMPGFPD [APMAP], for which the protein stability index runs as follows: under setting [1], 2.56 ± 0.34; under setting [2], 2.7 ± 0.35.

For RYDAEVVAIAQKFAALRASLVAPL [MYORG], the protein stability index worked out at 2.55 ± 0.17 under setting [1] and 2.01 ± 0.17 under setting [2].

As to SASECMQDFNTMFTNCYIYNKPTD [BRD3], the protein stability index amounted to 3.1 ± 0.23 under setting [1] and 3.08 ± 0.45 under setting [2].

Consider SCSLVLEHQPDNIKALFRKGKVLA [FKBP8], for which the protein stability index by setting is: under setting [1], 2.76 ± 0.15; under setting [2], 2.68 ± 0.26.

Turning to SCTIIFLASIFQLAMWTTALLHQA [TMEM175], the protein stability index turned out to be 2.5 ± 0.2 under setting [1] and 3.17 ± 0.54 under setting [2].

Sequence SDARVVKDMATGKSKGYGFVSFFN [TIA1] had a protein stability index under setting [1] of 2.79 ± 0.35 and a protein stability index under setting [2] of 2.77 ± 0.16.

SDRRKEKDPKAGDSKSGGSGSESD [DVL3] had a protein stability index under setting [1] of 5.69 ± 0.32 and a protein stability index under setting [2] of 5.55 ± 0.15.

For the sequence SDTYRCEERSPSFGEDYYGPSRSR [CLK3], the protein stability index by setting is: under setting [1], 4.47 ± 0.12; under setting [2], 4.52 ± 0.2.

The sequence SEDQKRLKQAKELDRERAAANEQL [CHCHD3] showed a protein stability index under setting [1] of 5.48 ± 0.17 and a protein stability index under setting [2] of 5.57 ± 0.21.

As to SEHVLKKAHKYSELIILYEKKGLH [VPS39], the protein stability index reads like this: under setting [1], 2.08 ± 0.23; under setting [2], 2.27 ± 0.34.

The sequence SERDSEAAKQNHVTADDFVQTSVI [EHMT1] yielded a protein stability index under setting [1] of 5.34 ± 0.45 and a protein stability index under setting [2] of 5.35 ± 0.34.

As for SETHAAGHSQEKTHSREKSSQESG [CHGB], the protein stability index is, setting by setting: under setting [1], 5.67 ± 0.22; under setting [2], 5.57 ± 0.16.

In the case of SFARDLPDFPSINMDPAGLDDEDD [RETREG3], the protein stability index reads like this: under setting [1], 5.41 ± 0.32; under setting [2], 5.49 ± 0.098.

For SFEHRVRGVRRTASTPTPDDKLFQ [CPN1], the protein stability index under setting [1] is 4.3 ± 0.31 and the protein stability index under setting [2] came to 4.37 ± 0.3.

For SFLKQKEQLEAEAQALRQELERQR [PBXIP1], the protein stability index turned out to be 4.43 ± 0.39 under setting [1] and 4.52 ± 0.088 under setting [2].

As for SFSVLNWDQVSRLHEVLTEVVPIH [TENT5C], the protein stability index is, setting by setting: under setting [1], 2.26 ± 0.28; under setting [2], 2.3 ± 0.27.

Consider SGGGSTSAAGIEARSRALRRRWCP [SPACA3], for which the protein stability index runs as follows: under setting [1], 3.95 ± 0.12; under setting [2], 4 ± 0.13.

As to SGGSYRDSYESYGNSRSAPPTRGP [RBMX], the protein stability index amounted to 4.3 ± 0.27 under setting [1] and 3.83 ± 0.38 under setting [2].

Regarding SGLIEIQSYPLCIYLINQKWFGRK [SLC22A15], the protein stability index by setting is: under setting [1], 2.47 ± 0.59; under setting [2], 2.19 ± 0.2.

In the case of SGSDVLDNVAYARAFNTDHQTQLL [RAD51], the protein stability index is 3.66 ± 0.21 under setting [1] and 3.73 ± 0.12 under setting [2].

As for SGSRPRKPPPRKHTRSWAVLKLLL [LRRC59], the protein stability index by setting is: under setting [1], 2.39 ± 0.37; under setting [2], 2.31 ± 0.28.

On to SIAPPEAEGVVLSDSPDAADSTSF [PPTC7], for which the protein stability index runs as follows: under setting [1], 5.34 ± 0.61; under setting [2], 5.29 ± 0.76.

In the case of SIRILDELVLPFQELQIDDNEYAY [HNF4A], the protein stability index is 3.46 ± 0.26 under setting [1] and 3.44 ± 0.26 under setting [2].

Consider SISDLSEHVFDLILELYNIDSHLL [PDS5B], for which the protein stability index is, setting by setting: under setting [1], 2.49 ± 0.89; under setting [2], 2.25 ± 0.81.

For the sequence SITHYRPVSASRSSLDLSYYPTSS [EMD], the protein stability index under setting [1] stood at 3 ± 0.26 and the protein stability index under setting [2] is 3.23 ± 0.19.

On to SKATFSRNIMNLIDIVAIIPYFIT [KCNA3], for which the protein stability index turned out to be 3.16 ± 0.52 under setting [1] and 3.32 ± 0.76 under setting [2].

On to SKPKTFQAYLDDCHRRYSCAHCRA [YPEL3], for which the protein stability index came out at 2.41 ± 0.55 under setting [1] and 3.04 ± 0.59 under setting [2].

In the case of SKQSPPMASSPIQPRKGGADWLGL [FBF1], the protein stability index was determined as 3.23 ± 0.47 under setting [1] and 3.48 ± 0.42 under setting [2].

Regarding SLGERMNTFVRYLLKRIKKCCGMR [KCNK9], the protein stability index is, setting by setting: under setting [1], 3.38 ± 0.14; under setting [2], 2.83 ± 0.32.

On to SLIQLLGRNFILFIIFGTMEEMQN [HACD3], for which the protein stability index runs as follows: under setting [1], 2.92 ± 0.67; under setting [2], 3.01 ± 1.3.

SLLDVQRVPSFESFEDDCSQSLCL [ETS2]: the protein stability index came out at 3.9 ± 0.53 under setting [1] and 3.67 ± 0.54 under setting [2].

For SLLGDDVFSTMAGLEEADAEVSVI [FBF1], the protein stability index is, setting by setting: under setting [1], 3.56 ± 0.26; under setting [2], 3.5 ± 0.22.

In the case of SLLRGFLLQNEFVGFMWRQRGRVI [MCOLN1], the protein stability index is, setting by setting: under setting [1], 2.29 ± 0.2; under setting [2], 2.13 ± 0.2.

Take SLPSPSSSGHQNRRFSSEDLEDPL [FBF1]: the protein stability index runs as follows: under setting [1], 5.45 ± 0.3; under setting [2], 5.46 ± 0.29.

As to SLVWGMVCGQNWGIVEAMVVCRQL [LOXL2], the protein stability index under setting [1] turned out to be 2.46 ± 0.82 and the protein stability index under setting [2] came to 3.07 ± 0.36.

With SMFTLPVVYVKHQAQIDQYLGLVR [RTN1], the protein stability index reads like this: under setting [1], 2.5 ± 0.49; under setting [2], 2.23 ± 0.41.

As for SMVVPLLSLHVKSLGASPTVAGIV [MFSD9], the protein stability index is, setting by setting: under setting [1], 2.95 ± 0.36; under setting [2], 2.4 ± 0.46.

SNKKRPSLDGRDPGNGTHGLSPEE [ELOA2] registered a protein stability index under setting [1] of 5.36 ± 0.27 and a protein stability index under setting [2] of 5.33 ± 0.23.

With SPLGALQHGFFRRTADEATNTGPA [DYRK1B], the protein stability index is, setting by setting: under setting [1], 4.38 ± 0.16; under setting [2], 4.57 ± 0.053.

Take SQSPSVSQLSVLSLSGVMLTDVSP [PRAME]: the protein stability index by setting is: under setting [1], 3 ± 0.49; under setting [2], 3 ± 0.33.

Turning to SQVCRVAYEIMQTLHPDASANFHS [FUT8], the protein stability index by setting is: under setting [1], 2.34 ± 0.36; under setting [2], 2.27 ± 0.42.

The sequence SRVTAFLDDLSQKLKPLGEAEREF [NLN] registered a protein stability index under setting [1] of 2.84 ± 0.07 and a protein stability index under setting [2] of 3.12 ± 0.51.

As to SRYLGDSGLDDFFLDIDTSAVEKE [SERTAD3], the protein stability index under setting [1] is 5.31 ± 0.12 and the protein stability index under setting [2] came to 4.9 ± 0.55.

Take SSAGSAEQTAPGDSTGYMEVSLDS [EHMT1]: the protein stability index is 5.29 ± 0.35 under setting [1] and 5.33 ± 0.12 under setting [2].

As for SSAPRDVQARMLSSTTILVQWKEP [PTPRD], the protein stability index runs as follows: under setting [1], 2.83 ± 0.47; under setting [2], 2.79 ± 0.15.

Regarding SSCSSTSGGGGGGGGGGGGGKSGG [CCDC6], the protein stability index is 5.17 ± 0.065 under setting [1] and 5 ± 0.51 under setting [2].

Take SSFQDLLGDALAGPPRAPGRSGWP [HES6]: the protein stability index is, setting by setting: under setting [1], 3.13 ± 0.12; under setting [2], 3.11 ± 0.18.

Regarding SSIECYDPIIDSWEVVTSMGTQRC [KLHL12], the protein stability index was 2.95 ± 0.2 under setting [1] and 3.24 ± 0.49 under setting [2].

As to SSKLVTKKAPQPAKPRLAERMTTR [HDAC6], the protein stability index was determined as 4.32 ± 0.14 under setting [1] and 4.47 ± 0.38 under setting [2].

SSLCYKQRIKSQERETEATRGRGG [MOG] returned a protein stability index under setting [1] of 5 ± 0.27 and a protein stability index under setting [2] of 5.06 ± 0.32.

In the case of SSSSECLEDSTMGSVADTVARVLR [PLK2], the protein stability index turned out to be 4.08 ± 0.22 under setting [1] and 4.03 ± 0.34 under setting [2].

In turn, SSYPVCVSKVVKGGSSGKGTTLRG [OAS1] had a protein stability index under setting [1] of 4.11 ± 0.39 and a protein stability index under setting [2] of 4.18 ± 0.19.

In the case of STIVVMLTKLREMGREKCHQYWPA [PTPRD], the protein stability index is 2.55 ± 0.22 under setting [1] and 2.63 ± 0.44 under setting [2].

On to STMSLNIITVTLNMEKYNFLGISI [DVL3], for which the protein stability index turned out to be 3.3 ± 0.42 under setting [1] and 2.89 ± 0.33 under setting [2].

STTNSTAAKPAASITSKPATLTTT [ZNF207]: the protein stability index by setting is: under setting [1], 4.39 ± 0.25; under setting [2], 4.41 ± 0.081.

Regarding STVGKLCRLINEDVNEQVMQVLGP [CEP70], the protein stability index reads like this: under setting [1], 3.08 ± 0.19; under setting [2], 3.2 ± 0.25.

In the case of SVFLLTLSIAFICCAQVKVSHLL [PHTF1], the protein stability index is 3.3 ± 0.35 under setting [3] and 3.23 ± 0.53 under setting [4].

Turning to SVLKRPERSQEESPPGSTKRRKSM [CDC25A], the protein stability index came out at 5.29 ± 0.29 under setting [1] and 5.5 ± 0.2 under setting [2].

Regarding SVMVMREILDYIFSGQIRLNEDTI [GAN], the protein stability index reads like this: under setting [1], 2.53 ± 0.51; under setting [2], 2.32 ± 0.64.

In the case of SVSCCHGNTLLAVRSVTDEPVPP [NEK8], the protein stability index is, setting by setting: under setting [3], 3.38 ± 0.17; under setting [4], 3.48 ± 0.077.

Consider SVSREARQTVPPLTVRLHTQSVSE [PWWP2B], for which the protein stability index runs as follows: under setting [1], 4.29 ± 0.23; under setting [2], 4.42 ± 0.28.

As to SVSWWGLSPALDLQAESPPVDPDS [DNAAF3], the protein stability index is, setting by setting: under setting [1], 4.85 ± 0.12; under setting [2], 4.944 ± 0.047.

Consider SVVLRRARGGAVSARYVLPDEAAR [DUSP5], for which the protein stability index was 3.56 ± 0.33 under setting [1] and 3.55 ± 0.26 under setting [2].

The values above are taken from the supplement of paper PMC10567573.
